Test results taken from PMC7948503, “Optimization of a peptide ligand for the adhesion GPCR ADGRG2 provides a potent tool to explore receptor biology” (The Journal of Biological Chemistry, 2020).
Non-standard residues stand in square brackets, D forms with d. Primed or numbered codes have the meaning given here. No end group written: not given here. Phe(4-Me) = Cc1ccc(C[C@H](N)C(=O)O)cc1; FITC′ = not defined here

Key:
Assay in all cases: FRET or BRET; HEK293 cells transfected with Rluc-ADGRG2-ΔGPS-β WT or mutants, stimulated by increasing concentrations of FITC-conjugated VPM-p15; saturation curves fitted with GraphPad; each experiment repeated 6 times
Conditions in all cases: one partner purified
Rluc-ADGRG2-ΔGPS-β V768A = target: T1, Rluc-ADGRG2-ΔGPS-β V768A (mouse, UniProt Q8CJ12-3 38-995, V768A)
T1 construct: ADGRG2 (GPR64), mouse, ADGRG2-ΔGPS-β: the entire ECD removed; source: HEK293, transfected, on cells; not shown: Rluc, N-terminal, kept

Rluc-ADGRG2-ΔGPS-β I730A = target: T2, Rluc-ADGRG2-ΔGPS-β I730A (mouse, UniProt Q8CJ12-3 38-995, I730A)
T2 construct: ADGRG2 (GPR64), mouse, ADGRG2-ΔGPS-β: the entire ECD removed; source: HEK293, transfected, on cells; not shown: Rluc, N-terminal, kept

Rluc-ADGRG2-ΔGPS-β L665A = target: T3, Rluc-ADGRG2-ΔGPS-β L665A (mouse, UniProt Q8CJ12-3 38-995, L665A)
T3 construct: ADGRG2 (GPR64), mouse, ADGRG2-ΔGPS-β: the entire ECD removed; source: HEK293, transfected, on cells; not shown: Rluc, N-terminal, kept

[1] = target: T4, Rluc-ADGRG2-ΔGPS-β wildtype (mouse, UniProt Q8CJ12-3 38-995)
T4 construct: also called WT; ADGRG2-ΔGPS-β WT; source: HEK293, transfected, on cells; not shown: Rluc, N-terminal, kept

Rluc-ADGRG2-ΔGPS-β V731A = target: T5, Rluc-ADGRG2-ΔGPS-β V731A (mouse, UniProt Q8CJ12-3 38-995, V731A)
T5 construct: ADGRG2 (GPR64), mouse, ADGRG2-ΔGPS-β: the entire ECD removed; source: HEK293, transfected, on cells; not shown: Rluc, N-terminal, kept

Rluc-ADGRG2-ΔGPS-β I844A = target: T6, Rluc-ADGRG2-ΔGPS-β I844A (mouse, UniProt Q8CJ12-3 38-995, I844A)
T6 construct: ADGRG2 (GPR64), mouse, ADGRG2-ΔGPS-β: the entire ECD removed; source: HEK293, transfected, on cells; not shown: Rluc, N-terminal, kept

Rluc-ADGRG2-ΔGPS-β T610A = target: T7, Rluc-ADGRG2-ΔGPS-β T610A (mouse, UniProt Q8CJ12-3 38-995, T610A)
T7 construct: ADGRG2 (GPR64), mouse, ADGRG2-ΔGPS-β: the entire ECD removed; source: HEK293, transfected, on cells; not shown: Rluc, N-terminal, kept

Rluc-ADGRG2-ΔGPS-β F838A = target: T8, Rluc-ADGRG2-ΔGPS-β F838A (mouse, UniProt Q8CJ12-3 38-995, F838A)
T8 construct: ADGRG2 (GPR64), mouse, ADGRG2-ΔGPS-β: the entire ECD removed; source: HEK293, transfected, on cells; not shown: Rluc, N-terminal, kept

Rluc-ADGRG2-ΔGPS-β W662A = target: T9, Rluc-ADGRG2-ΔGPS-β W662A (mouse, UniProt Q8CJ12-3 38-995, W662A)
T9 construct: ADGRG2 (GPR64), mouse, ADGRG2-ΔGPS-β: the entire ECD removed; source: HEK293, transfected, on cells; not shown: Rluc, N-terminal, kept

Rluc-ADGRG2-ΔGPS-β L679A = target: T10, Rluc-ADGRG2-ΔGPS-β L679A (mouse, UniProt Q8CJ12-3 38-995, L679A)
T10 construct: ADGRG2 (GPR64), mouse, ADGRG2-ΔGPS-β: the entire ECD removed; source: HEK293, transfected, on cells; not shown: Rluc, N-terminal, kept

Rluc-ADGRG2-ΔGPS-β S661A = target: T11, Rluc-ADGRG2-ΔGPS-β S661A (mouse, UniProt Q8CJ12-3 38-995, S661A)
T11 construct: ADGRG2 (GPR64), mouse, ADGRG2-ΔGPS-β: the entire ECD removed; source: HEK293, transfected, on cells; not shown: Rluc, N-terminal, kept

Rluc-ADGRG2-ΔGPS-β N759A = target: T12, Rluc-ADGRG2-ΔGPS-β N759A (mouse, UniProt Q8CJ12-3 38-995, N759A)
T12 construct: ADGRG2 (GPR64), mouse, ADGRG2-ΔGPS-β: the entire ECD removed; source: HEK293, transfected, on cells; not shown: Rluc, N-terminal, kept

Rluc-ADGRG2-ΔGPS-β Y765A = target: T13, Rluc-ADGRG2-ΔGPS-β Y765A (mouse, UniProt Q8CJ12-3 38-995, Y765A)
T13 construct: ADGRG2 (GPR64), mouse, ADGRG2-ΔGPS-β: the entire ECD removed; source: HEK293, transfected, on cells; not shown: Rluc, N-terminal, kept

Rluc-ADGRG2-ΔGPS-β V834A = target: T14, Rluc-ADGRG2-ΔGPS-β V834A (mouse, UniProt Q8CJ12-3 38-995, V834A)
T14 construct: ADGRG2 (GPR64), mouse, ADGRG2-ΔGPS-β: the entire ECD removed; source: HEK293, transfected, on cells; not shown: Rluc, N-terminal, kept

Rluc-ADGRG2-ΔGPS-β F828A = target: T15, Rluc-ADGRG2-ΔGPS-β F828A (mouse, UniProt Q8CJ12-3 38-995, F828A)
T15 construct: ADGRG2 (GPR64), mouse, ADGRG2-ΔGPS-β: the entire ECD removed; source: HEK293, transfected, on cells; not shown: Rluc, N-terminal, kept

Rluc-ADGRG2-ΔGPS-β V762A = target: T16, Rluc-ADGRG2-ΔGPS-β V762A (mouse, UniProt Q8CJ12-3 38-995, V762A)
T16 construct: ADGRG2 (GPR64), mouse, ADGRG2-ΔGPS-β: the entire ECD removed; source: HEK293, transfected, on cells; not shown: Rluc, N-terminal, kept
T16 sequence (Q8CJ12 other isoform, or with tags, fused parts or gaps V762A | V762A | V762A V762A): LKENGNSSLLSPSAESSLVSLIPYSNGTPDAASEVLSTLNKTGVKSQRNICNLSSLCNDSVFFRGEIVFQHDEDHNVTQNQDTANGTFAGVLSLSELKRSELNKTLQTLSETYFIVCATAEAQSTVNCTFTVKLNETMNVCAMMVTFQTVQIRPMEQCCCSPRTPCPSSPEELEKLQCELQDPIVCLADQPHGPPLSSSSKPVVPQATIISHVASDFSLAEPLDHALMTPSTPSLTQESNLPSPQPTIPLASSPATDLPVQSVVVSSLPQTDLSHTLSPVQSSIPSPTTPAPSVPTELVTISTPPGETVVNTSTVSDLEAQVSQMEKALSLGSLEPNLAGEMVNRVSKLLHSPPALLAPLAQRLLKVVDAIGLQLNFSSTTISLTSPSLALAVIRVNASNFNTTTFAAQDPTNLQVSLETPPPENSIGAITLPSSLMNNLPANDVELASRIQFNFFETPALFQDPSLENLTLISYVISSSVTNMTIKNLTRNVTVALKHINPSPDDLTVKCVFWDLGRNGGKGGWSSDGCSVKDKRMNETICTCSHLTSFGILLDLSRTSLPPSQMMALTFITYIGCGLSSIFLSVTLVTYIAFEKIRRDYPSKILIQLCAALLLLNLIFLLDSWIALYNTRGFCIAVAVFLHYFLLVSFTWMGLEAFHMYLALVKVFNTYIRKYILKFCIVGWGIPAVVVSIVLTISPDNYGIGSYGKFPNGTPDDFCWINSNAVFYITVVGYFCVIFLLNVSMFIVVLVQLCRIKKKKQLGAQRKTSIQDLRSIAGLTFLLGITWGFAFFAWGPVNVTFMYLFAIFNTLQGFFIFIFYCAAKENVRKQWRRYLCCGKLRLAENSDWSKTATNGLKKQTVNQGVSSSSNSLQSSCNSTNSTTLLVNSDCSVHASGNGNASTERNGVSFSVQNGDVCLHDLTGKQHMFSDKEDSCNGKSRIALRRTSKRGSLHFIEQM

T13 sequence (Q8CJ12 other isoform, or with tags, fused parts or gaps Y765A | Y765A | Y765A Y765A): as the sequence (Q8CJ12 other isoform, or with tags, fused parts or gaps V762A | V762A | V762A V762A) above, with A725V, Y728A counted along it
T15 sequence (Q8CJ12 other isoform, or with tags, fused parts or gaps F828A | F828A | F828A F828A): as the sequence (Q8CJ12 other isoform, or with tags, fused parts or gaps V762A | V762A | V762A V762A) above, with A725V, F791A counted along it
T9 sequence (Q8CJ12 other isoform, or with tags, fused parts or gaps W662A | W662A | W662A W662A): as the sequence (Q8CJ12 other isoform, or with tags, fused parts or gaps V762A | V762A | V762A V762A) above, with W625A, A725V counted along it
T8 sequence (Q8CJ12 other isoform, or with tags, fused parts or gaps F838A | F838A | F838A F838A): as the sequence (Q8CJ12 other isoform, or with tags, fused parts or gaps V762A | V762A | V762A V762A) above, with A725V, F801A counted along it
T3 sequence (Q8CJ12 other isoform, or with tags, fused parts or gaps L665A | L665A | L665A L665A): as the sequence (Q8CJ12 other isoform, or with tags, fused parts or gaps V762A | V762A | V762A V762A) above, with L628A, A725V counted along it
T4 sequence (Q8CJ12 other isoform, or with tags, fused parts or gaps mutant): as the sequence (Q8CJ12 other isoform, or with tags, fused parts or gaps V762A | V762A | V762A V762A) above, with A725V counted along it
T7 sequence (Q8CJ12 other isoform, or with tags, fused parts or gaps T610A | T610A | T610A T610A): as the sequence (Q8CJ12 other isoform, or with tags, fused parts or gaps V762A | V762A | V762A V762A) above, with T573A, A725V counted along it
T5 sequence (Q8CJ12 other isoform, or with tags, fused parts or gaps V731A | V731A | V731A V731A): as the sequence (Q8CJ12 other isoform, or with tags, fused parts or gaps V762A | V762A | V762A V762A) above, with V694A, A725V counted along it
T1 sequence (Q8CJ12 other isoform, or with tags, fused parts or gaps V768A | V768A | V768A V768A): as the sequence (Q8CJ12 other isoform, or with tags, fused parts or gaps V762A | V762A | V762A V762A) above, with A725V, V731A counted along it
T6 sequence (Q8CJ12 other isoform, or with tags, fused parts or gaps I844A | I844A | I844A I844A): as the sequence (Q8CJ12 other isoform, or with tags, fused parts or gaps V762A | V762A | V762A V762A) above, with A725V, I807A counted along it
T14 sequence (Q8CJ12 other isoform, or with tags, fused parts or gaps V834A | V834A | V834A V834A): as the sequence (Q8CJ12 other isoform, or with tags, fused parts or gaps V762A | V762A | V762A V762A) above, with A725V, V797A counted along it
T12 sequence (Q8CJ12 other isoform, or with tags, fused parts or gaps N759A | N759A | N759A N759A): as the sequence (Q8CJ12 other isoform, or with tags, fused parts or gaps V762A | V762A | V762A V762A) above, with N722A, A725V counted along it
T2 sequence (Q8CJ12 other isoform, or with tags, fused parts or gaps I730A | I730A | I730A I730A): as the sequence (Q8CJ12 other isoform, or with tags, fused parts or gaps V762A | V762A | V762A V762A) above, with I693A, A725V counted along it
T10 sequence (Q8CJ12 other isoform, or with tags, fused parts or gaps L679A | L679A | L679A L679A): as the sequence (Q8CJ12 other isoform, or with tags, fused parts or gaps V762A | V762A | V762A V762A) above, with L642A, A725V counted along it
T11 sequence (Q8CJ12 other isoform, or with tags, fused parts or gaps S661A | S661A | S661A S661A): as the sequence (Q8CJ12 other isoform, or with tags, fused parts or gaps V762A | V762A | V762A V762A) above, with S624A, A725V counted along it

With VS[Phe(4-Me)]GILLDLSRTSLP-{FITC′} [FITC-conjugated VPM-p15 (ADGRG2 Stachel peptide p15 T1V/F3Phe(4-Me))] the EC50 (Rluc-ADGRG2-ΔGPS-β V768A) was 1040 nM, the EC50 (Rluc-ADGRG2-ΔGPS-β I730A) was 1200 nM and the EC50 (Rluc-ADGRG2-ΔGPS-β L665A) was 796 nM. It also gave an EC50 [1] of 936 nM, an EC50 (Rluc-ADGRG2-ΔGPS-β V731A) of 838 nM and an EC50 (Rluc-ADGRG2-ΔGPS-β I844A) of 1540 nM. The EC50 (Rluc-ADGRG2-ΔGPS-β T610A) was 1120 nM, the EC50 (Rluc-ADGRG2-ΔGPS-β F838A) was 767 nM and the EC50 (Rluc-ADGRG2-ΔGPS-β W662A) was 1060 nM. For the same binder, the EC50 (Rluc-ADGRG2-ΔGPS-β L679A) was 1160 nM, the EC50 (Rluc-ADGRG2-ΔGPS-β S661A) was 778 nM and the EC50 (Rluc-ADGRG2-ΔGPS-β N759A) was 1550 nM. It also gave an EC50 (Rluc-ADGRG2-ΔGPS-β Y765A) of 905 nM, an EC50 (Rluc-ADGRG2-ΔGPS-β V834A) of 1120 nM and an EC50 (Rluc-ADGRG2-ΔGPS-β F828A) of 1170 nM. The EC50 (Rluc-ADGRG2-ΔGPS-β V762A) was 1190 nM.
